Experimental data published in doi:10.1101/2022.09.01.504486.

Biological target: PfCelTOS
Assay: cross-linking

In the case of PfCelTOS (natural protein), the stoichiometry N is reported as 2.
